Like-named read-outs stand apart in the source and are kept apart here.

Data set [1] concerns Nc1ccn([C@@H]2O[C@H](CO)[C@@H](O)C2(F)F)c(=O)n1. Put plainly: cells, lysate or membranes. Particulars: labelled compound, pH 6.5, 25 °C, glycerol-energized cells.
Data set [2] has the same test system. Description: cells, lysate or membranes. The format is cell-based, Escherichia coli. Particulars: labelled compound, pH 6.5, 25 °C, glycerol-energized cells.
Data set [3] deals with T1, KpNupC2 (Klebsiella pneumoniae, UniProt A6T7A8).
T1 construct: gene nupC; full-length, C-terminal biotin-acceptor domain tag (pT7-5/-BAD), expressed in E. coli JW2389 (nupC knockout)
Description: inhibition of [3H]-gemcitabine uptake in E. coli JW2389. The format is cell-based. An excerpt: inhibition of [3H]-gemcitabine uptake in E. coli JW2389 on KpNupC2

The test system of data set [4] is Nc1ccn([C@@H]2O[C@H](CO)[C@@H](O)C2(F)F)c(=O)n1. Put plainly: cells, lysate or membranes. Type of data set: cell-based, Klebsiella pneumoniae. Particulars: labelled compound, pH 6.5, 25 °C, glycerol-energized cells.
The test system is the same in data set [5]. Description: cells, lysate or membranes. The format is cell-based, Citrobacter freundii. Particulars: labelled compound, pH 6.5, 25 °C, glycerol-energized cells.
The target of data set [6] is T2, KpNupG (Klebsiella pneumoniae, UniProt A6TDX2).
T2 construct: gene nupG; full-length, C-terminal biotin-acceptor domain tag (pT7-5/-BAD), expressed in E. coli JW2389 (nupC knockout)
T2 sequence (A6TDX2 1-417): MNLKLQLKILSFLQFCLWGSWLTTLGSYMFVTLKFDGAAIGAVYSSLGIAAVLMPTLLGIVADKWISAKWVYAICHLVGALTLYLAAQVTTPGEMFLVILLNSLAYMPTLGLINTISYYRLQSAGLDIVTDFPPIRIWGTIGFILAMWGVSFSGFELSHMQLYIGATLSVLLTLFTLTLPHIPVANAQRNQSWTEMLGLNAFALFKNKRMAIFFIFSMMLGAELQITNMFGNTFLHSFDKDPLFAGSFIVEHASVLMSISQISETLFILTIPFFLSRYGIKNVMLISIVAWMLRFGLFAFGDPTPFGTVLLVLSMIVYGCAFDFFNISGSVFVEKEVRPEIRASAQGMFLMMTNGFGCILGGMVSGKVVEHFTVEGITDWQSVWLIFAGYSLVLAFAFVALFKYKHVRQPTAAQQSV
Description: inhibition of [3H]-gemcitabine uptake in E. coli JW2389. The format is cell-based. An excerpt:
inhibition of [3H]-gemcitabine uptake in E. coli JW2389 on KpNupG

Data set [7] deals with T3, CfNupG (Citrobacter freundii, UniProt A0A0D7LJ63).
T3 construct: gene nupG; full-length, C-terminal biotin-acceptor domain tag (pT7-5/-BAD), expressed in E. coli JW2389 (nupC knockout)
T3 sequence (A0A0D7LJ63 1-418): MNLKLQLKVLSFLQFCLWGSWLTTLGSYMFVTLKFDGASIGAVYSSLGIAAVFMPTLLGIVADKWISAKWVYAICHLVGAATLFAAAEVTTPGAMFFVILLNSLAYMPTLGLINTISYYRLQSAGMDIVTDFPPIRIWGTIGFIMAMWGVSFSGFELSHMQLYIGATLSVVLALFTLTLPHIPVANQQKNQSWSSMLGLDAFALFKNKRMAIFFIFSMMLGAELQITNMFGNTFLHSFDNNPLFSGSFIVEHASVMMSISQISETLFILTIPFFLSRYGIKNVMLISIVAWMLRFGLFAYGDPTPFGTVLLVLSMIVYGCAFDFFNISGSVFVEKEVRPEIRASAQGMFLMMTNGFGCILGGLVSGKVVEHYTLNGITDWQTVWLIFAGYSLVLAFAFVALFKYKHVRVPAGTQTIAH
The description is as above. The format is cell-based. Particulars: read-out: Inhibition by Other Nucleosides / Ki (μM) (Cytidine). An excerpt:
inhibition of [3H]-gemcitabine uptake in E. coli JW2389 on CfNupG

Data set [8] addresses T4, CfNupC (Citrobacter freundii, UniProt A0A0D7LF62).
T4 construct: gene nupC; full-length, C-terminal biotin-acceptor domain tag (pT7-5/-BAD), expressed in E. coli JW2389 (nupC knockout)
The description is as above. The following applies: read-out: Inhibition by Other Nucleosides / Ki (μM) (Cytidine). The format is cell-based. An excerpt:
inhibition of [3H]-gemcitabine uptake in E. coli JW2389 on CfNupC

The target of data set [9] is T5, KpNupC (Klebsiella pneumoniae, UniProt A0A0H3H172).
T5 construct: gene KPHS_38160; full-length, C-terminal biotin-acceptor domain tag (pT7-5/-BAD), expressed in E. coli JW2389 (nupC knockout)
The data set is described as above. Type of data set: cell-based. The source says:
inhibition of [3H]-gemcitabine uptake in E. coli JW2389 on KpNupC

The target of data set [10] is T6, NupG (Escherichia coli, UniProt P0AFF4).
T6 construct: full-length, C-terminal biotin-acceptor domain tag (pT7-5/-BAD), expressed in E. coli JW2389 (nupC knockout)
T6 sequence (P0AFF4 1-418): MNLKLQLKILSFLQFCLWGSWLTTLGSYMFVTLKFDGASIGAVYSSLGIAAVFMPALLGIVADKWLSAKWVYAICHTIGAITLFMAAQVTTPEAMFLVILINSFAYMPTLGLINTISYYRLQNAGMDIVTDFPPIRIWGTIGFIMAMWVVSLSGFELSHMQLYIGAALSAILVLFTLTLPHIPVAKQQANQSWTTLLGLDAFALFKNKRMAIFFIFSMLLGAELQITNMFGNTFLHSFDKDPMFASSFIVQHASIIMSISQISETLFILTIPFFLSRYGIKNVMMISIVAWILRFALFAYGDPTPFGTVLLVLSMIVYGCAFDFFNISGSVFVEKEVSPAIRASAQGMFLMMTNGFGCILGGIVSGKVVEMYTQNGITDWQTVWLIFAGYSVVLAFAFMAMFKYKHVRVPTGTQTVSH
The description is as above. Type of data set: cell-based. The source says:
inhibition of [3H]-gemcitabine uptake in E. coli JW2389 on NupG

The target in data set [11] is T7, NupC (Escherichia coli, UniProt P0AFF2).
T7 construct: full-length, C-terminal biotin-acceptor domain tag (pT7-5/-BAD), expressed in E. coli JW2389 (nupC knockout)
T7 sequence (P0AFF2 1-400): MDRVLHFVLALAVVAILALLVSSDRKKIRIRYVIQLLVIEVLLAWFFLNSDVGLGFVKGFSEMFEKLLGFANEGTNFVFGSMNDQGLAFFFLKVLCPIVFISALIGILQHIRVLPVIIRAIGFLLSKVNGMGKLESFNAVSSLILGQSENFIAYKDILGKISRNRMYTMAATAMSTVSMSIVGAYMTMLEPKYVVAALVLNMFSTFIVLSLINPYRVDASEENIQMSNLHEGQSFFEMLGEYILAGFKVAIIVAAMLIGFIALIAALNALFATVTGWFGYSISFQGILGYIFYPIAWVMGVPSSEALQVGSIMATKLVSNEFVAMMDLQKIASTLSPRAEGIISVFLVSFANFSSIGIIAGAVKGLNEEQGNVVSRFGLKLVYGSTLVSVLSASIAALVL
The description is as above. Type of data set: cell-based. Particulars: read-out: Inhibition by Other Nucleosides / Ki (μM) (Adenosine). An excerpt: inhibition of [3H]-gemcitabine uptake in E. coli JW2389 on NupC

Substrate in data set [12]: Nc1ccn([C@@H]2O[C@H](CO)[C@@H](O)C2(F)F)c(=O)n1
Put plainly: cells, lysate or membranes. Particulars: labelled compound, pH 6.5, 25 °C, glycerol-energized cells. This is another data set of the same source.

Setting [13] is: read-out: Inhibition by Other Nucleosides / Ki (μM) (Cytidine).

T1 sequence (A6T7A8 entry or part of it): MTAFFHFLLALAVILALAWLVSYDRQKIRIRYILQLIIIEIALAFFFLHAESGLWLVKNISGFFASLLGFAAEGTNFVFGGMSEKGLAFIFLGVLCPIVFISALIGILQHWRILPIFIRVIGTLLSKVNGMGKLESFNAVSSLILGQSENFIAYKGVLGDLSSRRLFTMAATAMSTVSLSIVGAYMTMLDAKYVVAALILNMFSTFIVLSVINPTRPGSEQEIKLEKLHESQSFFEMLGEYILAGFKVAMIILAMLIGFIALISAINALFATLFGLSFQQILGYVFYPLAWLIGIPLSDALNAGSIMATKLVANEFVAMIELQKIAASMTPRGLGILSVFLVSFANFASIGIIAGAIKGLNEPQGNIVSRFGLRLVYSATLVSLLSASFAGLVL
T5 sequence (A0A0H3H172 entry or part of it): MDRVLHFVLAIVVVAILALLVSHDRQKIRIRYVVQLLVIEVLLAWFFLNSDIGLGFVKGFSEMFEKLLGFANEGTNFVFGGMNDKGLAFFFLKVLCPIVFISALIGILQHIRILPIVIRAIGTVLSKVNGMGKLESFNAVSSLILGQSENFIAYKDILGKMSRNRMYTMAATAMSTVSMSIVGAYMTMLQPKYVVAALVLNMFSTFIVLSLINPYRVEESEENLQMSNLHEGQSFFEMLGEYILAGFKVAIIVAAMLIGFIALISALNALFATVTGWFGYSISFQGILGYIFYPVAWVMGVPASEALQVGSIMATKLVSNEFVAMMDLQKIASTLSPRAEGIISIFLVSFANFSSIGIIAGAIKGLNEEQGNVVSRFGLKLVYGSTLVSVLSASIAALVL
T4 sequence (A0A0D7LF62 entry or part of it): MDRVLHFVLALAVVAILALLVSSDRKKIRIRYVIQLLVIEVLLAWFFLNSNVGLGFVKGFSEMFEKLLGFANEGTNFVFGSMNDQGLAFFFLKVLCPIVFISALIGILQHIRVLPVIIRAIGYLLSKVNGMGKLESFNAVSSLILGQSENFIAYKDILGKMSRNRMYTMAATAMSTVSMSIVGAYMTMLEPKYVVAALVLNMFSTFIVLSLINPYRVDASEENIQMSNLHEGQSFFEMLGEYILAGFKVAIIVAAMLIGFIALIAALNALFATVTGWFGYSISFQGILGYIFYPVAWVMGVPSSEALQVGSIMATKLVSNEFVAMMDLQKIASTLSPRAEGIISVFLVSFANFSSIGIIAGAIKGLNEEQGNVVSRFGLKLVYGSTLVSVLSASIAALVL

In the case of “KpNupC (Klebsiella pneumoniae subsp. pneumoniae HS11286)”, in data set [1], the Km was 10.9 ± 2.0 µM, the maximal velocity (Vmax) came out at 0.0928 µmol/min/mg and the Vmax/Km turned out to be 8600 µL/min/mg.

NupC (Escherichia coli K-12): in data set [2], the Michaelis-Menten constant (Km) turned out to be 9.8 ± 1.0 µM, the maximal velocity (Vmax) turned out to be 0.0994 µmol/min/mg and the Vmax/Km was 10100 µL/min/mg.

Turning to `O=c1ccn([C@@H]2O[C@H](CO)[C@@H](O)[C@H]2O)c(=O)[nH]1` [uridine], the Ki in data set [3] was 6.1 ± 1 µM.

“KpNupC2 (Klebsiella pneumoniae subsp. pneumoniae MGH 78578)”: in [4], the Michaelis constant (Km) was determined as 11.6 ± 3.2 µM, the maximal velocity (Vmax) was 0.0873 µmol/min/mg and the Vmax/Km is 7500 µL/min/mg.

With CfNupC (Citrobacter freundii), in data set [5], the Km is 12.8 ± 1.3 µM, the maximal velocity (Vmax) stood at 0.102 µmol/min/mg and the Vmax/Km was 7800 µL/min/mg.

Regarding `Nc1ccn([C@@H]2O[C@H](CO)[C@@H](O)[C@H]2O)c(=O)n1` [cytidine], the Ki in data set [6] (setting [13]) turned out to be 18.1 ± 4 µM; in data set [7], 20.2 ± 3.8 µM; in data set [8], 7.2 ± 1.4 µM; in data set [9] (setting [13]), 6.7 ± 1.3 µM; in data set [3] (setting [13]), 6.5 ± 1 µM.

`Nc1nc2c(ncn2[C@@H]2O[C@H](CO)[C@@H](O)[C@H]2O)c(=O)[nH]1` [guanosine]: the Ki in [6] (read-out: Inhibition by Other Nucleosides / Ki (μM) (Guanosine)) is 18.3 ± 4.5 µM; in data set [10] it was 15.3 ± 5.8 µM.

In the case of CfNupG (Citrobacter freundii), in data set [5], the Km was found to be 2.7 ± 0.3 µM, the Vmax stood at 0.0474 µmol/min/mg and the Vmax/Km is 17200 µL/min/mg.

For the molecule `Nc1ncnc2c1ncn2[C@@H]1O[C@H](CO)[C@@H](O)[C@H]1O` [adenosine], the Ki in data set [11] came out at 5.4 ± 1.4 µM; in data set [9] (read-out: Inhibition by Other Nucleosides / Ki (μM) (Adenosine)) it was 7.7 ± 0.8 µM.

B1: KpNupG (Klebsiella pneumoniae subsp. pneumoniae MGH 78578) (protein)
chain: MNLKLQLKILSFLQFCLWGSWLTTLGSYMFVTLKFDGAAIGAVYSSLGIAAVLMPTLLGIVADKWISAKWVYAICHLVGALTLYLAAQVTTPGEMFLVILLNSLAYMPTLGLINTISYYRLQSAGLDIVTDFPPIRIWGTIGFILAMWGVSFSGFELSHMQLYIGATLSVLLTLFTLTLPHIPVANAQRNQSWTEMLGLNAFALFKNKRMAIFFIFSMMLGAELQITNMFGNTFLHSFDKDPLFAGSFIVEHASVLMSISQISETLFILTIPFFLSRYGIKNVMLISIVAWMLRFGLFAFGDPTPFGTVLLVLSMIVYGCAFDFFNISGSVFVEKEVRPEIRASAQGMFLMMTNGFGCILGGMVSGKVVEHFTVEGITDWQSVWLIFAGYSLVLAFAFVALFKYKHVRQPTAAQQSV
For the molecule B1, in data set [12], the Km was 2.8 ± 0.3 µM, the Vmax was determined as 0.0456 µmol/min/mg and the Vmax/Km came to 17100 µL/min/mg.

B2: NupG (Escherichia coli K-12) (protein)
chain: MNLKLQLKILSFLQFCLWGSWLTTLGSYMFVTLKFDGASIGAVYSSLGIAAVFMPALLGIVADKWLSAKWVYAICHTIGAITLFMAAQVTTPEAMFLVILINSFAYMPTLGLINTISYYRLQNAGMDIVTDFPPIRIWGTIGFIMAMWVVSLSGFELSHMQLYIGAALSAILVLFTLTLPHIPVAKQQANQSWTTLLGLDAFALFKNKRMAIFFIFSMLLGAELQITNMFGNTFLHSFDKDPMFASSFIVQHASIIMSISQISETLFILTIPFFLSRYGIKNVMMISIVAWILRFALFAYGDPTPFGTVLLVLSMIVYGCAFDFFNISGSVFVEKEVSPAIRASAQGMFLMMTNGFGCILGGIVSGKVVEMYTQNGITDWQTVWLIFAGYSVVLAFAFMAMFKYKHVRVPTGTQTVSH
Take B2: in data set [12], the Michaelis constant (Km) came to 2.8 ± 0.4 µM, the Vmax was 0.0461 µmol/min/mg and the Vmax/Km was 16600 µL/min/mg.

Broadly, the Km is the concentration of substrate that gives half-maximal velocity. What is called Vmax is the rate approached at saturating substrate.
